Values joined by “and” are separate entries in the source; they are usually repeats but may differ in a detail not shown here. Equal values may be shown once.
B1: antibody 452 (antibody, V domains shown)
VH: QVQLVESGGGLVKPGGSLRLSCAASGFTFSDYYLSWIRQAPGKGLEWVSYISSSGSNIYYADSVKGRFTISRDNAKNSLYLQMNSLRADDTAVFYCARAGRYCSGGSCRVEYFQHWGQGTLVTVSS
VL: SYELTQPPSVSVSPGQTARITCSGDALPKQYAYWYQQKPGQAPVLVIYKDNERPSGIPERFSGSSSGTTATLTISGVQAEDEADYYCQSADSSGTVVFGGGTKLTVL
B2: anti-SARS-CoV-2 antibody 495 (antibody, V domains shown)
VH: QITLKESGPTLVKPTQTLTLTCTFSGFSLSTSGVGVGWIRQPPGKALEWLALIYWDDDKRYSPSLKSRLTITKDTSKNQVVLIMTNMDPVDTATYYCAHRDSSSWFDLDAFDIWGQGTMVIVSS
VL: QSVLTQPPSVSEAPRQRVTISCSGSSSNIGNNAVNWYQQLPGKAPKLLIYYDDLLPSGVSDRFSGSKSGTSASLAISGLQSEDEADYYCAAWDDRLNGPVFGGGTKLTVL
B3: antibody 472 (antibody, V domains shown)
VH: EVQLVESGGGLIQPGGSLRLSCAASGFTVSSNYMSWVRQAPGKGLEWVSVIYSGGTTHYADSVKGRFTISRDNSKNTLYLQMNSLRAEDTAVYYCANYGMDVWGQGTTVTVSS
VL: SYELTQPSSVSVSPGQTARITCSGDVLAKKYARWFQQKPGQAPVLVIYKDSERPSGIPERFSGSSSGTTVTLTISGAQVEDEADYYCYSAADKVFGGGTKLTVL
B4: anti-SARS-CoV-2 antibody 499 (antibody, V domains shown)
VH: EVQLVESGGGLVKPGGSLRLSCAASGFTFSSYSMNWVRQAPGKGLEWVSSISSSSSYIYYADSVKGRFTISRDNAKNSLYLQMNSLRAEDTAVYYCARAPAGIVVGPDYWGQGTLVTVSS
VL: NFMLTQPHSVSESPGKTVTISCTGSSGSIASNYVQWYQQRPGSAPTTVIFEDNQRPSGVPDRFSGSIDSSSNSASLTISGLKTEDEADYYCQSYHSSNPHVVFGGGTKLTVL

How the values were obtained:
Settings in all cases: remark: other sources report otherwise
[1] = molecular target: SARS-CoV-2 full length spike protein (wild type), expressed on the surface of transiently transfected CHO cells (SARS-CoV-2), P0DTC2
[2] = molecular target: SARS-CoV-2 full length spike protein (wild-type) (SARS-CoV-2), P0DTC2
[3] = molecular target: SARS-CoV-2 spike (S) protein, full length, wild type (SARS-CoV-2), P0DTC2
[4] = molecular target: SARS-CoV-2 spike protein (SARS-CoV-2), P0DTC2

Row | Binder | median fluorescence intensity, fold over isotype control (fold over isotype) [1] | median fluorescence fold over isotype (fold over isotype) [3] | further results
1 | B1 | 26.8 | – | Binding to Wild-Type SARS-CoV-2 (Bead Assay) [2]: 854
2 | B2 | – | 1090 and 384 and 530 | –
3 | B3 | 0.91 | – | Kd [4]: < 0.469 nM; koff [4]: < 1e-05 s⁻¹; kon [4]: 21300 M⁻¹ s⁻¹
4 | B4 | – | 1120 and 386 and 432 | –
